A short description of this data set: soluble on expression in E. coli; label from the status in PepcDB or PDB records.
As to “MISSNSSSTSLNVETDYPTNGKKPLKEGSVQLTSLSTLLSHHRYFFLYHETLIISKQKGACSYKLKEKLRLEKVWIASSNTADSFLIGWPFTNYLVHFRNTEEKDEWFELLSCCVQQCLRPLFTTISMEINVRGRKQTIRRRVDNGKKSGEIVVDTAGDLGLPHTSYQLTLSFGDNSHRQLQGPENVYVAIMSEIERQGTRLSESQKQALDTCPIANCRLILSTIKSTSGPSAKQLVNSIKKKVLTRTDSRSIFGKGLNGPTPPQPIMTIVDHLRMDGFDAEGIFRKSPKQSTFKELKCELDKGVVPDFHKYNTHVLASILKEYLRSIPGKILLSGNYELWMREIADEPNTEKKVSCCRALLSHLPTSHSILLANVLKLLNKISNSPSSKMNASSLSVCLAPSFLESPDPMEGGKKIPPLIEFLISHAAQVMPGFSTDNVFAIMTSPMVDHNANMVCSPAPSSSHSDDGGSSQKTPIIEELNDADDATSQSSLAESDLPDEPRGTSAHLETISEISEPPTNDERLVFSSSEDEDDDDEDELRVYRPKSSTSTSSCFARTSFVSETLKTSADDGDKGLNKETPRSPCLKRIHFQRTEAQHRNKEGNIKLDFEALKFHRPSVRKSSLEEVARKNSAEFFHHSREPSDAAVTPTPPKNGSTMRKESREEATQTADCGLPHISSNDDSDSRFPAFKSSSVAMLTEPYKSSSSSSSSTSSIPSDPAPRPYFLKEEYTSLANKPTVQVAPFSQEPSLKTINDRLNALRQNSILAQEVPQEPVMTSSRLRSEATKSLTNSPIMPRSYGGSLMQKDREEHSFVADDFYKASSRKPELQRSSSQRGLTSMNNNNNSTKQIYGARPSSLKTPRRFAGAGGVEACVGMDPLEINWSVSQLKTLFQDTKAPSIDTTYNMN”, the “soluble on expression in E. coli” value was “not soluble”.

Consider “MLVPLYDVMCRALGINGKTAGSAYSGEQQVDVGREVKVQFMTSNNIDMVWEFRSAGDQLVVHPGAVNQMVFYARNPSDKPMTAQAIPSIAPAEAAAYFHKTECFCFTQQVLQPGESIEMPVRFIVDRDLPKDVRHVTLAYTLFDI”, for which the “soluble on expression in E. coli” value was “soluble”.

Take “GMQDERWNHPLYTTTAINDEELEGHAYIPGGLKVQTSSPMNDHPGTNPEQLLGLSLSTCLEATLEAVEKEHGLPHTGAVRVKVAFIGARAEYQFLVHAQVMVKGVDFDTAKAFTNEIENRCPVSKLLKNSGNYTIETVTDFKD”: the “soluble on expression in E. coli” value is given as “soluble”.

With “MTRTETLELLVATLQQTNASQSESIRQLTRQNEQLQNKLDELLAQVAWLNRQLFGRKSEKLSRLDPNQLSLFEQPVQSLEPEPLEETVVEQTTTPMVTKKKERQNRKLLEGLPVVEVVIEPQDLDLTKYKRIGEEHTRTLEFEPGKLYVKEIIRPKYGLKDNTALPQEYQDGIVIADLPLLPIYKGLPGASLLAEILLQKYEYHVPFYRQIREFHHLGLKIPENTLHGWFKPACELLKPLYDELKKQVLAVDYIQVDETTLPIINKQSHKAVREYLWMVRAVTSGLVFFHYDDGSRSQETARNLLEPFKGYLQSDGYAAYNVFEGKERVCLVGCLVHIRRHYETAKEENKSQAKYVLAKIQELYRIEQAADIQGISPEMRMSKRQKQALPILDELEQWMETTYPKVLPKSQMGQAIAYAYTLWPRMRNYLKDGKLKIDNNLAENAIRPIALSRKNFLFCGNHEAAENTDVICSLLASCKASQVNPREWLTEIIAWLPYYTRDKGKDLKELLPNYWKLRRSKEI”, the “soluble on expression in E. coli” value was “not soluble”.

Take “MAQNNENALPDITKSITLEAPIQKVWETVSTSEGIAKWFMPNDFQLKEGQEFHLQSPFGPSPCKVLAVQAPTELSFEWDTEGWVVTFQLEDLGEKTGFTLIHSGWKEPNEVIGKANEKSSVVRGKMDGGWTGIVNERLRKAVEELEHHHHHH”: the “soluble on expression in E. coli” value is given as “soluble”.

In the case of “SMSDESVYKVLLLGAPGVGKSALARIFGGVEDGPEAEAAGHTYDRSIVVDGEEASLMVYDIWEQDGGRWLPGHCMAMGDAYVIVYSVTDKGSFEKASELRVQLRRARQTDDVPIILVGNKSDLVRSREVSVDEGRACAVVFDCKFIETSAALHHNVQALFEGVVRQIRLRRDSKEA”, the “soluble on expression in E. coli” value is on record as “soluble”.

Take “MSNLLGPRDANGIPVPMTVDESIASMKASLLKKIKRSAYVYRVDCGGCNGCEIEIFATLSPLFDAERFGIKVVPSPRHADILLFTGAVTRAMRSPALRAWQSAPDPKICISYGACGNSGGIFHDLYCVWGGTDKIVPVDVYIPGCPPTPAATLYGFAMALGLLEQKIHARGPGELDEQPAEILHGDMVQPLRVKVDREARRLAGYRYGRQIADDYLTQLGQGEEQVARWLEAENDPRLNEIVSHLNHVVEEARIRLEHHHHHH”: the “soluble on expression in E. coli” value is on record as “not soluble”.

Consider “MIFRFGFVSNAMSLWDASPAKTLTFARYSKLSKTERKEALLTVTKANLRNTMRTLHYIIGHGIPLYRFSSSIVPLATHPDVMWDFVTPFQKEFREIGELVKTHQLRTSFHPNQFTLFTSPKESVTKNAVTDMAYHYRMLEAMGIADRSVINIHIGGAYGNKDTATAQFHQNIKQLPQEIKERMTLENDDKTYTTEETLQVCEQEDVPFVFDFHHFYANPDDHADLNVALPRMIKTWERIGLQPKVHLSSPKSEQAIRSHADYVDANFLLPLLERFRQWGTNIDFMIEAKQKDKALLRLMDELSSIRGVKRIGGGALQWKS”, for which the “soluble on expression in E. coli” value is given as “not soluble”.

For “MNYAEICIIKRDGKREDFSISKIKNAVSKAFSATGINDEQQLIADITMNVIGQFASPTITVEEIQDLVEKELMKVRPEVAKKYIIYREWRNTERDKKTQMKHVMDGIVAIDKNDVNLSNANMSSHTPAGQMMTFASEVTKDYTYKYLLPKRFAEAHQLGDIHIHDLDYYPTKTTTCIQYDMDDLFERGFRTKNGSIRTPQSIQSYATLATIIFQTNQNEQHGGQAIPAFDFFMAKGVSKSFRKHLASFISFYVQMNKGEEIEEKAIRTVIAEHLSSIKASELERETLRMALTALQINIDKEHLNQIIEKAFVQTQKDTHQAMEGFIHNLNTMHSRGGNQVVFSSINYGTDTSAEGRMVIEELLKATVEGLGTRGEVPVFPIQIFKIKNGVSYTEADYEKAMANFDAAMEGKLKFEAPNFDLFLKACHTTAKALFPNFMFLDAPFNQNEKWDANDPQRYRYELATMGCRTRVFENVAGEKSSLGRGNLSFTTLNMPRLAIEARIKAENMTEDGHNKDAVERKAKEIFIESIHETATLIAEQLYERYQYQRTALARQFPFMMGNDVWKGGAALNPNEQVGDVLRSGTLGIGFLGGHNAMVALYGEGHGHSQKAWDTLYEAVLEINKVADEYKAKYNLNYSVLATPAEGLSGRFTRMDRRKYGKIKGVTDNDYYVNSFHVDVKEPISIVEKIKREAPFHAITRGGHITYVELDGEAQKNVRAIAKIVKVMFDEGIGYGSINHPVDTCHNCGYKGVIYDKCPVCQSENILRMRRITGYLTGDLSSWNSAKRAEEKDRVKHG”, the “soluble on expression in E. coli” value was “not soluble”.

Turning to “MGSDKIHHHHHHMDVTMGYFTIPKGPGDSTDARWYNAPGGRSIFLRPDNKGTTRAVLTLQAPIREAPESAQEQKRWLKERFADAGWEAPRVLDGLEDATDLYFDLLRQVRMKRWHKGRIALTGDAAWCATPLSGIGTTLAIVGAYVLAGELSKTHDIAQAFKCYENIMRPFVEKGQNVPKFGPRLMHPHSRLGVSFQRSALRFVSKPGIQKVLTKVAMPAADKVDLPDYQYHASS”, the “soluble on expression in E. coli” value was “not soluble”.

Regarding “MMKKSSDCTEILVGKAASMDGSTIVARNEDGYGPINPIKFVVHPAVDQTGASFTSAVTGVEVPLPDHAYRYTGTPQADQSDGQYEEAGINELNVGMSATETTATNARVLGYDPLVDDGINEEAMITLVLPYIKSAKEGAARLGALIEKYGTGESNSIAFNDQNDVWYLETAGGHHWAAMRLPEDTYAIAPNQTLMQTVDLQDTDNFLVASDLVDFVAQHHLNPTPDTFNFREIFGTHGEDDAYYNTPRTWYGQKLFNPEITDQQPTDQDMPFTRKPAKKLAIEDVQFFLSSHYNGTPYDPFGTYASGSAADQRKYRPIAMDRNQCSSILQIRNDVPADHAAIQWIAMGFFAYAPYVPFFTNITDTPADYQSTTAAVDVANVYWLNKTLSVLIEPHFHDYVEAVNAFRDGCQSYARSRVAATDAAVSGNVSAFLTQSNQITAGEISKRTRELFDTIVKHGLLLSKTAWEKGQNL”, the “soluble on expression in E. coli” value is on record as “not soluble”.

(Values after the DeepSol protein solubility set.)
